According to paper PMC9281127:

Target: His-tagged PD-L1 (programmed death-ligand 1) (UniProt Q9NZQ7)
Assay: co-immunoprecipitation (IP: His, IB: Flag)
Details: co-transfected plasmids, parent: 1.0

Sequence of UniProt Q9NZQ7 (Q9NZQ7 19-290): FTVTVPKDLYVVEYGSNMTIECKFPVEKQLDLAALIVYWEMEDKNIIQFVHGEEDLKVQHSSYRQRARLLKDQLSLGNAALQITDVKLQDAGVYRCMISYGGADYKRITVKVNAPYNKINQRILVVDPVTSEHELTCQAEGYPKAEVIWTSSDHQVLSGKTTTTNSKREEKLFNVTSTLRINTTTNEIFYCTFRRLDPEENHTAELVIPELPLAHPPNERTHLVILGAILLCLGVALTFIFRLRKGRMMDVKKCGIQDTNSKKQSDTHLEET

Substance: Flag-tagged ZG16 (zymogen granule protein 16) (from UniProt O60844) K36A; R37A; K79A; R53A; R55A
- ratio to parent (HCT116 cells): 0.6
- ratio to parent (SW480 cells): 0.5
